From paper PMC3833899 (Brain research, 2013)

Target: Recombinant chick netrin-1 (chick, UniProt Q90922 26-606)
Assay: retention on a 30 kD cut-off size exclusion

- binding result: binds
Binder: PRYQHTGAVYLLSASPQ [Integrin α3 peptide]
